In general, EC50 refers to the midpoint of the concentration-response curve. A low value points to an effect from little substance.

This note sets out measurements from US20250340661A1 (JIANGSU HENGRUI PHARMACEUTICALS, published 2025).

B1: 10A4 human-rabbit chimeric anti-CD40 antibody (antibody, human IgG1, V domains shown)
VH: QSLEESGGRLVTPGGSLTLTCTVSGIDLSRNAISWVRQSPGNGLEWIGGIGSSGSAYYASWAKSRSTITRDTNLNTVTLKMTSLTAADTATYFCARDGYAGSSWGIYYGMDPWGPGTLVTVSS
VL: AIEMTQSPPSLSASVGETVRIRCLASEDIYRGISWYQQKPGKPPTLLIYGASTLQSGVPPRFSGSGSGTDYTLTIGGVQAEDAATYYCLGGHSYSSAGLTFGAGTKVEIK
B2: 9F10 human-rabbit chimeric anti-CD40 antibody (antibody, human IgG1, V domains shown)
VH: QSVKESEGGLFKPTDTLTLTCTVSGFSLSSYDMSWVRQAPGNGLEWIGAIGGAGGTYYASWAKSRSTITRNTNLNTVTLKMTSLTAADTATYFCTRGWTRLDLWGQGTLVTVSS
VL: DIVLTQTESPVSGPVGGTVTINCQASEDISSNLAWYQQKPGQPPKLLIYAASNLASGVPSRFKGSGSGTEFTLTISDLECADAATYYCQGAYWSSTSYFGNGFGGGTQVVVK
B3: 4D4 human-rabbit chimeric anti-CD40 antibody (antibody, human IgG1, V domains shown)
VH: QSVKESEGGLFKPTDTLTLTCTVSGFSLSSYGVSWVRQAPGNGLEWIGGIGSDGSAYYASWAKSRATITRDTNLKTVTLEMTSLTAADTATYFCARGGITVYAIWGPGTLVTVSS
VL: AFELTQTPSPVSAAVGGTVTIKCQASQSISNGLAWYQQKPGQPPKVLIVGASNLASGVSSRFKGSGSGTEFTLSISDLECADGATYYCQSYFSSSSTVFGGGTEVVVK
B4: 8C12 human-rabbit chimeric anti-CD40 antibody (antibody, human IgG1, V domains shown)
VH: QSVKESEGGLFKPTDTLTLTCTVSGFSLSSYGVSWVRQAPGNGLEWIGGIGSDGSAYYASWAKSRATITRDTNLKTVTLEMTSLTVADTATYFCARGGITVYAIWGPGTLVTVSS
VL: AFELTQTPSPVSAAVGGTVTIKCQASQSISNGLAWYQQKPGQPPKVLIVGASNLASGVSSRFKGSGSGTEFTLSISDLECADGATYYCQSYFSSSSTVFGGGTEVVVK
B5: 8G10 human-rabbit chimeric anti-CD40 antibody (antibody, human IgG1, V domains shown)
VH: QSVKESEGGLFKPTATLTLTCTVSGFSLSSYGVSWVRQAPGSGLEWIGGIASTGTTYYANWAKSRSTITRDTNLKTVTLKMTSLTAADTATYFCARGGITAYAIWGPGTLVTVSS
VL: AFELTQTPSSVEAAVGGTVTIKCQASQSITNGLAWYQQKPGQPPKLLIAGASNLASGVSSRFKGSGSGTEFTLTISDLECADAATYYCQSYYDSSSTVFGGGTEVVVK
B6: humanized anti-CD40 antibody 9E6-L2H1 (antibody, human IgG1, V domains shown)
VH: EVQLQESGPGLVKPSDTLSLTCTVSGFSLSSYDMSWIRQPPGKGLEWIGAIGGAGGTYYASWAKSRVTISVDTSLNQVSLKLSSVTAADTAVYYCARGWTRLDLWGQGTLVTVSS
VL: DIQLTQSPSFLSASVGDRVTITCQASEDISSNLAWYQQKPGKPPKLLIFPASNLASGVPSRFSGSGSGTEFTLTISSLQPEDFATYYCQGGYWTSTSNFGSGFGGGTKVEIK
B7: humanized anti-CD40 antibody 9E6-L2H2 (antibody, human IgG1, V domains shown)
VH: QVQVQESGPGLVKPSDTLSLTCTVSGFSLSSYDMSWIRQPPGKGLEWIGAIGGAGGTYYASWAKSRVTISVDTSLNQVSLKLSSVTAADTAVYYCARGWTRLDLWGQGTLVTVSS
VL: DIQLTQSPSFLSASVGDRVTITCQASEDISSNLAWYQQKPGKPPKLLIFPASNLASGVPSRFSGSGSGTEFTLTISSLQPEDFATYYCQGGYWTSTSNFGSGFGGGTKVEIK
B8: humanized anti-CD40 antibody 9E6-L4H1 (antibody, human IgG1, V domains shown)
VH: EVQLQESGPGLVKPSDTLSLTCTVSGFSLSSYDMSWIRQPPGKGLEWIGAIGGAGGTYYASWAKSRVTISVDTSLNQVSLKLSSVTAADTAVYYCARGWTRLDLWGQGTLVTVSS
VL: DIQLTQSPSFLSASVGDRVTITCQASEDISSNLAWYQQKPGKPPKLLIFPASNLASGVPSRFSGSGSGTEFTLTISSLQPEDFATYYCQGGYWTSTSNFGQGFGGGTKVEIK
B9: humanized anti-CD40 antibody 9E6-L1H2 (antibody, human IgG1, V domains shown)
VH: QVQVQESGPGLVKPSDTLSLTCTVSGFSLSSYDMSWIRQPPGKGLEWIGAIGGAGGTYYASWAKSRVTISVDTSLNQVSLKLSSVTAADTAVYYCARGWTRLDLWGQGTLVTVSS
VL: DIQLTQSPSFLSASVGDRVTITCQASEDISSNLAWYQQKPGKPPKLLIFPASNLASGVPSRFSGSGSGTEFTLTISSLQPEDFATYYCQGGYWTSTSNFGNVFGGGTKVEIK
B10: humanized anti-CD40 antibody 9E6-L3H1 (antibody, human IgG1, V domains shown)
VH: EVQLQESGPGLVKPSDTLSLTCTVSGFSLSSYDMSWIRQPPGKGLEWIGAIGGAGGTYYASWAKSRVTISVDTSLNQVSLKLSSVTAADTAVYYCARGWTRLDLWGQGTLVTVSS
VL: DIQLTQSPSFLSASVGDRVTITCQASEDISSNLAWYQQKPGKPPKLLIFPASNLASGVPSRFSGSGSGTEFTLTISSLQPEDFATYYCQGGYWTSTSNFGTGFGGGTKVEIK
B11: humanized anti-CD40 antibody 9E6-L3H2 (antibody, human IgG1, V domains shown)
VH: QVQVQESGPGLVKPSDTLSLTCTVSGFSLSSYDMSWIRQPPGKGLEWIGAIGGAGGTYYASWAKSRVTISVDTSLNQVSLKLSSVTAADTAVYYCARGWTRLDLWGQGTLVTVSS
VL: DIQLTQSPSFLSASVGDRVTITCQASEDISSNLAWYQQKPGKPPKLLIFPASNLASGVPSRFSGSGSGTEFTLTISSLQPEDFATYYCQGGYWTSTSNFGTGFGGGTKVEIK
B12: humanized anti-CD40 antibody 9E6-L1H1 (antibody, human IgG1, V domains shown)
VH: EVQLQESGPGLVKPSDTLSLTCTVSGFSLSSYDMSWIRQPPGKGLEWIGAIGGAGGTYYASWAKSRVTISVDTSLNQVSLKLSSVTAADTAVYYCARGWTRLDLWGQGTLVTVSS
VL: DIQLTQSPSFLSASVGDRVTITCQASEDISSNLAWYQQKPGKPPKLLIFPASNLASGVPSRFSGSGSGTEFTLTISSLQPEDFATYYCQGGYWTSTSNFGNVFGGGTKVEIK
B13: humanized anti-CD40 antibody 2F12-L2H1 (antibody, human IgG1, V domains shown)
VH: EVTLKESGPVLVKPTETLTLTCTVSGFSLSSYGVSWIRQPPGKALEWLAGIGSDGSAYYASWAKSRLTISRDTNLKQVVLTMTNMDPVDTATYYCARGGITVYAMWGQGTLVTVSS
VL: AFQLTQSPSSLSASVGDRVTITCQASQSISQGLAWYQQKPGKPPKLLIVGASNLASGVPSRFSGSGSGTDFTLTISSLQPEDFATYYCQSYFSSSSTVFGGGTKVEIK
B14: humanized anti-CD40 antibody 2F12-L3H1 (antibody, human IgG1, V domains shown)
VH: EVTLKESGPVLVKPTETLTLTCTVSGFSLSSYGVSWIRQPPGKALEWLAGIGSDGSAYYASWAKSRLTISRDTNLKQVVLTMTNMDPVDTATYYCARGGITVYAMWGQGTLVTVSS
VL: AFQLTQSPSSLSASVGDRVTITCQASQSISSGLAWYQQKPGKPPKLLIVGASNLASGVPSRFSGSGSGTDFTLTISSLQPEDFATYYCQSYFSSSSTVFGGGTKVEIK
B15: humanized anti-CD40 antibody 2F12-L2H2 (antibody, human IgG1, V domains shown)
VH: EVTVKESGPVLVKPTETLTLTCTVSGFSLSSYGVSWIRQPPGKALEWLGGIGSDGSAYYASWAKSRLTISRDTNLKQVVLTMTNMDPVDTATYYCARGGITVYAMWGQGTLVTVSS
VL: AFQLTQSPSSLSASVGDRVTITCQASQSISQGLAWYQQKPGKPPKLLIVGASNLASGVPSRFSGSGSGTDFTLTISSLQPEDFATYYCQSYFSSSSTVFGGGTKVEIK
B16: humanized anti-CD40 antibody 2F12-L4H1 (antibody, human IgG1, V domains shown)
VH: EVTLKESGPVLVKPTETLTLTCTVSGFSLSSYGVSWIRQPPGKALEWLAGIGSDGSAYYASWAKSRLTISRDTNLKQVVLTMTNMDPVDTATYYCARGGITVYAMWGQGTLVTVSS
VL: AFQLTQSPSSLSASVGDRVTITCQASQSISTGLAWYQQKPGKPPKLLIVGASNLASGVPSRFSGSGSGTDFTLTISSLQPEDFATYYCQSYFSSSSTVFGGGTKVEIK
B17: humanized anti-CD40 antibody 2F12-L1H2 (antibody, human IgG1, V domains shown)
VH: EVTVKESGPVLVKPTETLTLTCTVSGFSLSSYGVSWIRQPPGKALEWLGGIGSDGSAYYASWAKSRLTISRDTNLKQVVLTMTNMDPVDTATYYCARGGITVYAMWGQGTLVTVSS
VL: AFQLTQSPSSLSASVGDRVTITCQASQSISNVLAWYQQKPGKPPKLLIVGASNLASGVPSRFSGSGSGTDFTLTISSLQPEDFATYYCQSYFSSSSTVFGGGTKVEIK
B18: humanized anti-CD40 antibody 2F12-L3H2 (antibody, human IgG1, V domains shown)
VH: EVTVKESGPVLVKPTETLTLTCTVSGFSLSSYGVSWIRQPPGKALEWLGGIGSDGSAYYASWAKSRLTISRDTNLKQVVLTMTNMDPVDTATYYCARGGITVYAMWGQGTLVTVSS
VL: AFQLTQSPSSLSASVGDRVTITCQASQSISSGLAWYQQKPGKPPKLLIVGASNLASGVPSRFSGSGSGTDFTLTISSLQPEDFATYYCQSYFSSSSTVFGGGTKVEIK
B19: humanized anti-CD40 antibody 2F12-L1H1 (antibody, human IgG1, V domains shown)
VH: EVTLKESGPVLVKPTETLTLTCTVSGFSLSSYGVSWIRQPPGKALEWLAGIGSDGSAYYASWAKSRLTISRDTNLKQVVLTMTNMDPVDTATYYCARGGITVYAMWGQGTLVTVSS
VL: AFQLTQSPSSLSASVGDRVTITCQASQSISNVLAWYQQKPGKPPKLLIVGASNLASGVPSRFSGSGSGTDFTLTISSLQPEDFATYYCQSYFSSSSTVFGGGTKVEIK

T1 sequence (P25942 21-277): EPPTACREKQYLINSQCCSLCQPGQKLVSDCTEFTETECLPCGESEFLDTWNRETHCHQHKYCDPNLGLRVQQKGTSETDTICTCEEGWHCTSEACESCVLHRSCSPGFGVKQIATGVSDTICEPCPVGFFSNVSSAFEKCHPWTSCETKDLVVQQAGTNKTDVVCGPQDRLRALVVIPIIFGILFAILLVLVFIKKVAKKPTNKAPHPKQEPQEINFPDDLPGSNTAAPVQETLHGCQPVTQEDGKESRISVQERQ

One assay has as its target T1, human CD40 on the cell surface (human, UniProt P25942 21-277). Briefly: cell-based or functional assay.
Turning to B1, the “reporter gene cell activity IC50 (HEK-Blue CD40L cells, SEAP)” value turned out to be 0.217 nM.
Still for that read-out and setting: then B2, with 0.217 nM; and B3, with 0.197 nM.
On the same count and under the same terms, with B4 the figure was 0.173 nM; with B5, 0.156 nM.

The next assay addresses T1, human CD40 on the cell surface. Briefly: flow cytometry on Raji cells, Alexa Fluor 488 anti-human IgG (H+L) detection. Here is the method: Raji cells were plated at 1.5E5/well, and various concentrations of CD40 antagonistic antibodies were added. The plate was incubated at 4° C. for 1 h. After two washes with FACS buffer (PBS+2% FBS), a secondary antibody (Alexa Flour488 conjugated anti-human IgG (H+L) antibody) was added, and the plate was incubated at 4° C. for 0.5 h.
After two washes with FACS buffer, the fluorescence intensity on the cell surface was measured by flow cytometry (BD FACS Celesta).
Consider B6, for which the EC50 turned out to be 1.99 nM.
For the molecule B7, the EC50 is 1.66 nM.
Same read-out and setting: then B8, with 0.928 nM.
For B9, the response was half-maximal at 1.05 nM (EC50).
B10 showed an EC50 of 1.06 nM.
As to B11, the EC50 amounted to 1.15 nM.
With B12, a half-maximal effect (EC50) was put at 1.08 nM.
Still for that read-out and setting: then B13, with 0.516 nM; and B14, with 0.456 nM; and B15, with 0.516 nM.
The same measure, in the same setting: with B16 the figure was 0.508 nM.
B17 came in with an EC50 of 0.469 nM.
Regarding B18, the midpoint of the response, the EC50, lay at 0.762 nM.
Same read-out and setting: then B19, with 0.549 nM.

The target is the same in the next assay. Briefly: flow cytometry on Raji cells, AF647 anti-human IgG detection. On the procedure: Raji cells are of a tumor cell line that overexpresses human CD40. 2E5 Raji cells were inoculated onto a 96-well plate. 100 μL of a test antibody was added, with the highest final concentration of 100 nM. The antibody was 5-fold diluted to 8 concentrations. The plate was incubated at 4° C. for 1 h. […] The plate was incubated at 4° C. for 30 min. The plate was washed once with wash buffer, and fluorescence intensity was measured using a flow cytometer. The binding EC₅₀ values of the anti-CD40 antibodies for CD40 were calculated. The anti-CD40 antagonistic antibody CFZ533 (i.e., iscalimab, Nova) was used as a positive control, and the heavy and light chain variable region sequences were derived from sequence 5 and sequence 2 of U.S. Pat. No. 8,277,810B, respectively.
A general note: A flow cytometer gives signals particle by particle.
B1 gave an EC50 of 0.467 nM.
